The source of these data is patent US20040072753A1 (published 2004).

Where no end group is shown, it is not given here.

B1: EAβBP peptide (ERAB residues 99-108) (peptide, UniProt Q99714 99-108, looked up)
peptide: KTYNLKKGQT
notes: range 99-108; 21 covers only ERAB 101-109; also called EAβBD

One assay has as its target T1, Aβ 1-42 (biotinylated (LinKit-Biolink kit, site not stated) where used as the labelled tracer; unlabelled where used as competitor or in activity assays).
T1 construct: catalase and cytotoxicity assays; also called biotinylated Aβ 1-42; Amyloid-β 1-42
Put plainly: competition ELISA, EAβBP-coated plate, Scatchard analysis. The method, then: (§1) After washing to remove unbound material, an alkaline phosphatase polymer-streptavidin conjugate (Sigma, Dorset, UK) was added and incubated at 37° C. for 2 hours. After washing to remove unbound material, p-nitrophenylphosphate substrate was added and absorbance at 405 nm determined.
A general note: An ELISA detects its analyte on a solid surface through an enzyme-linked reagent.

In assay [1] the target is T2, CAβBP peptide (catalase residues 400-409) (human, UniProt P04040 400-409).
T2 construct: range 400-409; 20 covers only catalase 402-414; also called CAIIBP; CARBP
T2 peptide (looked up): GAPNYYPNSF
Put plainly: ELISA, CAβBP-coated plate. The method, then: as §1

For assay [2], the target named is B1. Description: ELISA, EAβBP-coated plate. The procedure: as §1
In assay [3] the target is T3, recombinant human cyclin B1 (human, UniProt P14635 1-433, limits assumed).
T3 construct: Coated on ELISA plates
Description: ELISA, cyclin B1-coated plate. The method, then: (§2) ELISA plates were coated with recombinant human cdc2 or the cdc2 119-133 peptide fragment (CDKP1) (1 μg ml⁻¹) in carbonate buffer and unoccupied sites blocked with 5% (w/v) dried milk. […] After washing to remove unbound material, an alkaline phosphatase polymer-streptavidin conjugate (Sigma, Dorset, UK) was added and incubated at 37° C. for 2 hours. After washing to remove unbound material p-nitrophenylphosphate substrate was added and absorbance at 405 nm determined.
Cyclins are co-factors for cdc2 which are required for enzyme activity. These proteins also contain substrate recognition sequences which may play a role in the recruitment of substrate molecules to the active cdc2/cyclin complex. The recombinant cdc2/cyclin enzyme complex used in the above phosphorylation experiments contained cyclin B1. […] Binding assays as described above using cyclin B1 coated plates were carried out.

In another assay the target is T4, recombinant human cdc2 (human, UniProt P06493 1-297, limits assumed).
T4 construct: Coated on ELISA plates at 1 µg/ml; also called p34-cdc2
Put plainly: ELISA, cdc2-coated plate, biotinylated peptide 200 pM. The method, then: as §2

By Kd is commonly meant the equilibrium constant for the complex coming apart. A lower Kd goes with a tighter complex.

T4 sequence (P06493 whole entry): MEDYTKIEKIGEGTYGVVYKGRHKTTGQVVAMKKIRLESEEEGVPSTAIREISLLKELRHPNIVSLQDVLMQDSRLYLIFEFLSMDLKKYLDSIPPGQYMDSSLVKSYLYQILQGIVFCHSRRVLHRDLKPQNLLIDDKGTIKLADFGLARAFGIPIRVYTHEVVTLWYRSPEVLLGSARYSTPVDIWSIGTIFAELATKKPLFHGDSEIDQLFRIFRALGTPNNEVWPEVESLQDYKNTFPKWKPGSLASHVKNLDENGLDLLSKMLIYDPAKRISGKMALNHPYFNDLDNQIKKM
T3 sequence (P14635 whole entry): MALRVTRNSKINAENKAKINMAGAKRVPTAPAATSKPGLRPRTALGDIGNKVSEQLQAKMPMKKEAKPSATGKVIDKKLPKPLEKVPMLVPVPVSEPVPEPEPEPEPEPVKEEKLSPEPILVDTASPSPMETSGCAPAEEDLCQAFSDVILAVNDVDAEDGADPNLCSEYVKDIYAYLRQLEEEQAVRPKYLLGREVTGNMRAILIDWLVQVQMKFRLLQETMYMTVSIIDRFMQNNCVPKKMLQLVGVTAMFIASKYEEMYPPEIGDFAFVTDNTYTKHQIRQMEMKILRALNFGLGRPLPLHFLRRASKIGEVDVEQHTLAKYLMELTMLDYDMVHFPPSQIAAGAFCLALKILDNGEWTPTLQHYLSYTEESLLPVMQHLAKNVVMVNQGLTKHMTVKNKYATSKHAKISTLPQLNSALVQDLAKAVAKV

Molecule B1 showed a Kd with Aβ 1-42 of 107 nM. This counts as sub-micromolar.

B2: Aβ 12-28 (peptide)
peptide: VHHQKLVFFAEDVGSNK
modifications: also: biotinylated, site not given here
notes: also called biotinylated Aβ 12-28
In the case of B2, in assay [1], the binding result is reported as “no binding (tested: 200 pM biotinylated peptide)”.

B3: Aβ 25-35 (peptide)
peptide: GSNKGAIIGLM
modifications: also: biotinylated in some assays, site not given here
notes: Used both biotinylated and unlabelled; also called biotinylated Aβ 25-35
Consider B3, for which the binding result in assay [2] is given as “no binding (tested: 200 pM biotinylated peptide)”; in assay [3], “binds”; with recombinant human cdc2, “binds”.
